From PMC9126983, “Structural insights into the mechanism of archaellar rotational switching” (Nature Communications, 2022)
“And” between values parts separate entries of the source, which are not always exact repeats. Equal entries are not always repeated.

B1: Methanococcus maripaludis CheY, activated with BeF3- (phosphorylated state mimicked) (natural protein, UniProt Q6LYQ5 1-123, looked up)
chain: MASIVKTMIVDDSAFMRNILKRILSTTNKYVVIGEAANGADAIKMAEELQPDLISMDIVMPETDGITATKAIKEKTPEIKIVMCTSVDQEQKMIDAVNAGADGYIVKPFQAPKILEQFNKLFP
modifications: BeF3- phosphomimic (2 mM BeF2 and 20 mM NaF in the buffer); phosphorylation site D57
notes: CheY of Methanococcus maripaludis; The same protein as m10, in buffer with 2 mM BeF2, 20 mM NaF and 20 mM MgCl2; also called CheY-P; source: E. coli BL21 (DE3), purified (Ni-NTA, SEC)
B2: GST-MmCheFCTD (domain or fragment)
chain: IKSLLPKSEDDLDSEMAVESWSGDKLKNEVEQLAPEEQEILTAIYTGITSLELPGMMGMDIDEVEKVLEKLIDQGFLDLVRIRKETDLTEKGRAVTNFIITNF
modifications: GST carrier left out; limits taken as the C-terminal 103 residues (246-348, F348 terminal) used in the CheY:CheFCTD fusion, exact limits are in Fig. S3a; fusion is mainly a dimer by mass photometry /
B3: GST-MmCheFCTD (domain or fragment)
chain: B2 chain

How the values were obtained:
[1] = biological target: Thermococcus kodakarensis CheF (Thermococcus kodakarensis); experiment: mass photometry; OneMP mass photometer; protein stocks diluted in HEPES buffer; typical working concentrations of MmCheF 25–50 nM
[2] = biological target: FliM 1-249 (Thermotoga maritima) (UniProt Q9WZE6); settings: cited from earlier work
Sequence of FliM 1-249 (Thermotoga maritima) (Q9WZE6 1-249): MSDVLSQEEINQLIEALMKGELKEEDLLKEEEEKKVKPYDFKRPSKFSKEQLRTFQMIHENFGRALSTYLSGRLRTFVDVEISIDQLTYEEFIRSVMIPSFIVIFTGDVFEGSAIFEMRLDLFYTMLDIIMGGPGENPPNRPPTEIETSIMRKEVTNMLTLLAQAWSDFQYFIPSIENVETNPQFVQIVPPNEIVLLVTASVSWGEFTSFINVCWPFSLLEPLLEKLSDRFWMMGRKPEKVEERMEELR

[3] = biological target: Pyrococcus horikoshii CheF (Pyrococcus horikoshii); experiment: mass photometry; OneMP mass photometer; protein stocks diluted in HEPES buffer; typical working concentrations of MmCheF 25–50 nM
[4] = biological target: Methanococcus maripaludis CheF (Methanococcus maripaludis); experiment: as above
FliM FliMN peptide = FliM FliMN peptide (UniProt P06974); settings: cited from earlier work
GST-MmCheFCTD [5] = biological target: B3; experiment: ITC; GST-MmCheFCTD (25 µM) in the sample cell, titrated with MmCheY; 25 °C; 20 mM HEPES-Na pH 7.5, 200 mM NaCl, 20 mM KCl, 20 mM MgCl2, 20 mM NaF, 2 mM BeF2; settings: both partners purified
GST-MmCheFCTD [6] = biological target: B3; experiment: mass photometry; OneMP mass photometer; protein stocks diluted in HEPES buffer; typical working concentrations of MmCheF 25–50 nM; settings: both partners purified
[7] = biological target: B1; experiment: ITC; GST-MmCheFCTD (25 µM) in the sample cell, titrated with MmCheY; 25 °C; 20 mM HEPES-Na pH 7.5, 200 mM NaCl, 20 mM KCl, 20 mM MgCl2, 20 mM NaF, 2 mM BeF2; settings: both partners purified

Which stoichiometry N [1] does the source give for “Thermococcus kodakarensis CheF (natural protein)” here?
The stoichiometry N was 2.

For CheY (from UniProt Q56312), which Kd [2] is on record?
Its Kd is 39 nM.

With “Pyrococcus horikoshii CheF (natural protein)” as the molecule, how does the percent of observations in the dimer species [3] read?
The percent of observations in the dimer species was 89%.

What about the stoichiometry N [3] of the same molecule?
The stoichiometry N was 2.

Which stoichiometry N [4] does the source give for “Methanococcus maripaludis CheF (natural protein)” here?
Its stoichiometry N is 2.

Which Kd (FliM FliMN peptide) does the source give for CheY (from UniProt P0AE67) here?
The Kd was 27000 nM.

With B1 as the molecule, how does the “stoichiometry N” value (GST-MmCheFCTD [5]) read?
The value was 1.

Which “stoichiometry N” value (GST-MmCheFCTD [6]) does the source give for B2 here?
The value was 2 and 4.

With B3 as the molecule, how does the Kd [7] read?
The Kd was 1240 ± 414 nM.
